Assay results as given in EP0765166B1, “RADIOLABELED ANNEXIN-GALACTOSE CONJUGATES” (NEORX CORPORATION, priority 1994, dated 1995).

Details: in vivo, iv
Description: • A. Animal Preparation - LA Vascular Thrombi. Fasting 25-30 kg Yorkshire swine were sedated with intramuscular Telazol (5-10 mg/kg) (commercially available from AVECO Co.) and commercially available Atropine (1 mg, Elkins-Sinn, Inc., Cherry Hill, NJ). Surital (200 mg) (commercially available from Abbott Laboratories) anaesthesia was administered intravenously. The animals were intubated and given inhalation anaesthesia of 1.5-2% halothane (commercially available from Abbott Laboratories) and O2 sufficient to obtain a deep level of anesthesia and physiologic arterial blood gases. Continuous electrocardiographic monitoring was instituted using alligator clip electrodes. A cut down in the neck region was conducted, and an 8 french catheter (USCI Co, Billerica, MA) was placed in the right common carotid artery for blood pressure and arterial blood gas monitoring as well as for blood sampling. The swine were placed in a right lateral decubitus position, and a lateral thoracotomy was performed to expose the heart. The incision was held open by a thoracotomy retractor. The pericardium was opened, and the left atrial appendage was isolated from the left atrium by a vascular cross- clamp. Rubber tipped forceps were used to gently crush the appendage. Five minutes later, ricinoleate (1 mg, ICN Pharmaceuticals, Costa Mesa, CA) and thrombin ([…], Johnson and Johnson Co., Arlington, Texas) were injected into the LAA (left atrial appendage) using a 27 Ga needle. The cross-clamp was removed 10 minutes later. One hour after the crush injury, Tc-99m-annexin V, prepared in accordance with Example I above, was administered as an intravenous bolus dose in an ear vein. The intravenous line was then flushed with saline. In 7 animals, I-125 labeled ovalbumin was administered as a non-specific control preparable, for example, by the procedure described by Fraker et al., Biochem. Biophys. Res. Commun. 80: 849-57, 1978). Briefly, I-125-radiolabeled ovalbumin was prepared by the Iodogen method, employing 600 µg ovalbumin (Sigma Chemical Co., St. Louis, Missouri) and NaI-125 (2mCi, 0.92 nmol). Image acquisition was performed as described below. At the end of the experimental procedure (generally about 150 minutes), the animals were sacrificed by an intravenous bolus dose of 80 mEq of KCl while the animals were still under general anaesthetic. A final blood sample was taken for well counting. The heart was rapidly excised, washed free of blood and dissected into samples for well counting. Additional samples of carotid artery, lung, liver, spleen, muscle and kidney were obtained in some animals. • B. Controls. Five different types of controls were used: open chest sham; closed chest sham; ovalbumin; indium platelets; and non-specific Tc-99m-labeled antibody. • 1. Open Chest Sham. […]

In the case of “Tc-99m-annexin V: Annexin V radiolabeled with Tc-99m by using a diamide dimercaptide N2S2 chelate (Comparative Example I)”, the a is reported as “a = 0.0389 %ID/g”, the b is reported as “b = 0.0300 %ID/g” and the t1/2 a is reported as “t1/2 a = 9.6 min”. The t1/2 b was “t1/2 b = 46 min”.
